Reference: patent publication US9393309B2, “Self-gelatinizable nucleic acid” (Kyoto University, priority 2011, dated 2016)

Key:
Format in all cases: physicochemical
[1] = Formation of hydrogel from nucleic acid units without ligase; conditions: for gel formation singly or on mixing: final DNA concentration 2 mM, NaCl 150 mM; for gel formation: without DNA ligase
Method: A NaCl solution was added to an ODN solution (polypodna) such that the final Na^+ concentration was 5 to 150 mM. The gel formation and the gel strength were measured by a gel strength analyzer (gel strength meter, Nakayamadenki Co., Ltd, Osaka).
A structure to be a hydrogel (a nucleic acid monomer and an estimated nucleic acid unit) in conditions at room temperature, at 5 mM to 150 mM sodium chloride concentration (150 mM is substantially physiological concentration), and not containing a DNA ligase was elucidated. […] For convenience, nucleic acid units estimated to be formed according to the number of nucleic acid monomers capable of constituting the nucleic acid unit were represented by xxxpodna (xxxpod-like structure forming nucleic acid, xxx is substituted by tri (3), tetra (4) and the like, according to the number of nucleic acid monomers capable of constituting the nucleic acid unit). In Table 2 described below, xxxpodna is an estimated nucleic acid unit, and each of xxx-Y-N is a nucleic acid monomer that can be a constituent element of the nucleic acid unit (xxxpodna) which is mentioned above thereof. When the descriptions of Ys are different from each other, different nucleic acid units can be formed. N denotes numbering of nucleic acid monomers constituting each of the estimated nucleic acid units.
Unlike (1-1) described above, gelation can be controlled by using a nucleic acid monomer including cohesive protruding ends which are not attached to themselves (that is, not palindrome sequence).

[2] = Evaluation of gelation at various DNA concentrations and NaCl concentrations; parameters: key: ◯: the mark “∘” is given to cases in which gelation was observed; X: the mark “x” is given to cases of a solution state (sol-state)
Method: […] The gel formation and the gel strength were measured by a gel strength analyzer (gel strength meter, Nakayamadenki Co., Ltd, Osaka).
Specifically, by changing the DNA concentrations of an aqueous solution of Tripodona (4-18-18) (X=4) (SEQ ID NOs.: 1, 2 and 3), Tetrapodna (4-18-18) (X=4) (SEQ ID NOs.: 2, 4, 5 and 6), Hexapodna (4-18-18) (X=4) (SEQ ID NOs.: 2, 3, 4, 7, 9 and 10) and Tetrapodna (8-16-16) (X=8) (SEQ ID NOs.: 22, 23, 24 and 25) as shown in the lines of Table 4, and by changing the NaCl concentration as shown in the rows of Table 4, whether or not a gel is formed at various DNA concentrations and NaCl concentrations was evaluated. The results are shown such that the mark “∘” is given to cases in which gelation was observed, and the mark “x” is given to cases of a solution state (sol-state).

[3] = Percentage of remaining gels with the passage of time
Method: Gels were formed by adjusting the NaCl concentration at 150 mM in an aqueous solution containing Tetrapodna (12-14-14) (SEQ ID NOs.: 30, 31, 32 and 33) at a DNA concentration of 0.1 mM, 0.25 mM or 0.5 mM, and the percentage of the remaining gels was measured with the passage of time. The results are shown in a graph in the left upper side of FIG. 17.
Gels were formed in conditions at a certain DNA concentration (0.5 mM) and a certain NaCl concentration (150 mM), and the percentage of the remaining gels was measured with the passage of time by using Tetrapodna (respectively, SEQ ID NOs.: 2, 4, 5 and 6, SEQ ID NOs.: 18, 19, 20 and 21, SEQ ID NOs.: 22, 23, 24 and 25, SEQ ID NOs.: 26, 27, 28 and 29, as well as SEQ ID NOs.: 30, 31, 32 and 33) having various lengths of the cohesive protruding end (4, 6, 8, 10 or 12 bases). The results are shown in a graph in the left lower side of FIG. 17. […] When 12 hours had passed, the percentage of the remaining gels became about 50%.
Gels were formed by variously changing the NaCl concentrations (5 mM, 50 mM, 100 mM or 150 mM) of an aqueous solution containing Tetrapodna (12-14-14) (SEQ ID NOs.: 30, 31, 32 and 33) at a DNA concentration of 0.5 mM, and the percentage of the remaining gels was measured with the passage of time. The results are shown in a graph in the right upper side of FIG. 17. […] At a low salt concentration (5 mM), almost all the formed gels became in a sol state when about 6 hours had passed. When the salt concentration was increased to 50 mM, solation tendency was weakened, a change from a gel into a sol occurred moderately (about 40% when 12 hours had passed).
The percentage of the remaining gels was measured with the passage of time in the same manner as in (8-3) except that Tetrapodna (4-18-18) (SEQ ID NOs.: 2, 4, 5 and 6) was used instead of Tetrapodna (12-14-14) (SEQ ID NOs.: 30, 31, 32 and 33). The results are shown in a graph in the right lower side of FIG. 17. […] In (8-3), Tetrapodna (12-14-14) (the length of the cohesive protruding end is 12 bases) was used. In (8-4), Tetrapodna (4-18-18) (the length of the cohesive protruding end is 4 bases) was used.

With “dsDNA (12-14): double strand DNA, SEQ ID NOs.: 42 and 43, 12-base ends complementary to Tetrapodna (A) (chain 1 GACTGACTCTGAACGTCAGCGTTA; chain 2 GACTGACTCTGATAACGCTGACGT; DNA, all phosphodiester, methylation of C not given here)” the “gel formation singly or on mixing” value [1] was “did not form a gel singly”.

B1: Tripodna(4-18-18): nucleic acid unit of three ODNs, SEQ ID NOs.: 1, 2 and 3, 4-base palindrome cohesive protruding end, CpG (nucleic acid)
DNA 1: ACGTTCGTCAACGTCTGTGCTCTCACGTTGACGCTGTCGA
DNA 2: ACGTTCGACAGCGTCAACGTGAAACGTGAAGCGTCTGCGA
DNA 3: ACGTTCGCAGACGCTTCACGTTGAGCACAGACGTTGACGA
modifications: unmodified DNA
For B1, the gel formation [1] was “gels can be prepared”, the gelation ([2]; Na+ 2 mM, DNA 1.2 mM) was “X” and the gelation ([2]; Na+ 2 mM, DNA 1.4 mM) was “◯”. For the same molecule, the gelation ([2]; Na+ 10 mM, DNA 1.2 mM) was “◯”, the gelation ([2]; Na+ 20 mM, DNA 1.0 mM) was “X” and the gelation ([2]; Na+ 50 mM, DNA 0.7 mM) was “X”. For the same molecule, the gelation ([2]; Na+ 50 mM, DNA 0.8 mM) was “X”, the gelation ([2]; Na+ 50 mM, DNA 0.9 mM) was “X” and the gelation ([2]; Na+ 50 mM, DNA 1.0 mM) was “◯”. For the same molecule, the gelation ([2]; Na+ 100 mM, DNA 0.7 mM) was “◯”, the gelation ([2]; Na+ 100 mM, DNA 0.8 mM) was “◯” and the gelation ([2]; Na+ 100 mM, DNA 0.9 mM) was “◯”. The gelation ([2]; Na+ 150 mM, DNA 0.6 mM) was “X”.

B2: Tetrapodna (6-17-17): four ODNs, SEQ ID NOs.: 18, 19, 20 and 21, 6-base cohesive protruding end (nucleic acid)
DNA 1: AACGTTTACGCACGACATCAGCGTCTGGACGCTTCGTCGA
DNA 2: AACGTTTCGACGAAGCGTCCAGATCTCGTCAACGCTGCGA
DNA 3: AACGTTTCGCAGCGTTGACGAGACAGACGCTGTGACGCTA
DNA 4: AACGTTTAGCGTCACAGCGTCTGCGCTGATGTCGTGCGTA
modifications: unmodified DNA
For B2, the gel formation [1] was “gels can be prepared”, the “initial percentage of gels” value ([3]; DNA 0.5 mM, NaCl 150 mM) was “about 100%” and the “percentage of the remaining gels with the passage of time” value (“percentage of the remaining gels” for short) ([3]; DNA 0.5 mM, NaCl 150 mM) was “decreased with the passage of time only slightly”.

B3: Tetrapodna (10-15-15): four ODNs, SEQ ID NOs.: 26, 27, 28 and 29, 10-base cohesive protruding end (nucleic acid)
DNA 1: ACGTTAACGTTGCACGACATCAGCGTCTGACGCTCGTCGA
DNA 2: ACGTTAACGTTCGACGAGCGTCAGATCTCGCAACGCTGCA
DNA 3: ACGTTAACGTTGCAGCGTTGCGAGACAGACGCTTGACGCA
DNA 4: ACGTTAACGTTGCGTCAAGCGTCTGCGCTGATGTCGTGCA
modifications: DNA, all phosphodiester, methylation of C not given here
With B3 the gel formation [1] was “gels can be prepared”, the “initial percentage of gels” value ([3]; DNA 0.5 mM, NaCl 150 mM) was “about 100%” and the “percentage of the remaining gels” value ([3]; DNA 0.5 mM, NaCl 150 mM) was “decreased with the passage of time only slightly”.

B4: Tetrapodna (12-14-14): four ODNs, SEQ ID NOs.: 30, 31, 32 and 33, 12-base palindrome cohesive protruding end (nucleic acid)
DNA 1: ACGTCATGACGTTGCACGACATCACGTTGACGCTCGTCGA
DNA 2: ACGTCATGACGTTCGACGAGCGTCAATCTCGCAACGTGCA
DNA 3: ACGTCATGACGTTGCACGTTGCGAGACAGACGCTTGACGA
DNA 4: ACGTCATGACGTTCGTCAAGCGTCTGCGTGATGTCGTGCA
modifications: DNA, all phosphodiester, methylation of C not given here
In the case of B4, the gel formation [1] is reported as “gels can be prepared”, the “gel formation (percentage of gels)” value ([3]; DNA 0.1 mM, NaCl 150 mM) is reported as “about 25%” and the “percentage of the remaining gels” value ([3]; DNA 0.25 mM, NaCl 150 mM) is reported as “the initial percentage of gels was increased, but the percentage of the remaining gels was decreased with the passage of time”. The “time until almost all the formed gels became in a sol state” value ([3]; DNA 0.5 mM, NaCl 5 mM) was “about 6 hours”, the “change from a gel into a sol” value ([3]; DNA 0.5 mM, NaCl 50 mM, 12 hours) was “about 40%” and the “initial percentage of gels” value ([3]; DNA 0.5 mM, NaCl 100 mM) was “about 100%”. The “percentage of the remaining gels” value ([3]; DNA 0.5 mM, NaCl 100 mM) was “decreased with the passage of time only slightly”, the “initial percentage of gels” value ([3]; DNA 0.5 mM, NaCl 150 mM) was “about 100%” and the “percentage of the remaining gels” value ([3]; DNA 0.5 mM, NaCl 150 mM) was “decreased with the passage of time only slightly”.

B5: Pentapodna (4-18-18): five ODNs, SEQ ID NOs.: 2, 3, 4, 7 and 8, 4-base cohesive protruding end (nucleic acid)
DNA 1: ACGTTCGACAGCGTCAACGTGAAACGTGAAGCGTCTGCGA
DNA 2: ACGTTCGCAGACGCTTCACGTTGAGCACAGACGTTGACGA
DNA 3: ACGTTCGCTGACGTTGCAGACATCACGTTGACGCTGTCGA
DNA 4: ACGTTCGTCAACGTCTGTGCTCGCAGCGTCTTAACGTCGA
DNA 5: ACGTTCGACGTTAAGACGCTGCTGTCTGCAACGTCAGCGA
modifications: unmodified DNA
For B5, the gel formation [1] was “gels can be prepared”.

B6: Tetrapodna (A): SEQ ID NOs.: 34, 35, 36 and 37, 12-base non-palindrome cohesive protruding end (nucleic acid)
DNA 1: TCAGAGTCAGTCTGCACGACATCACGTTGACGCTCGTCGA
DNA 2: TCAGAGTCAGTCTCGACGAGCGTCAATCTCGCAACGTGCA
DNA 3: TCAGAGTCAGTCTGCACGTTGCGAGACAGACGCTTGACGA
DNA 4: TCAGAGTCAGTCTCGTCAAGCGTCTGCGTGATGTCGTGCA
modifications: DNA, all phosphodiester, methylation of C not given here
In the case of B6, the “gel formation singly or on mixing” value [1] is reported as “did not form a gel singly”.

B7: Tetrapodna (B): SEQ ID NOs.: 38, 39, 40 and 41, 12-base end complementary to Tetrapodna (A) (nucleic acid)
DNA 1: GACTGACTCTGATGCACGACATCACGTTGACGCTCGTCGA
DNA 2: GACTGACTCTGATCGACGAGCGTCAATCTCGCAACGTGCA
DNA 3: GACTGACTCTGATGCACGTTGCGAGACAGACGCTTGACGA
DNA 4: GACTGACTCTGATCGTCAAGCGTCTGCGTGATGTCGTGCA
modifications: DNA, all phosphodiester, methylation of C not given here
In the case of B7, the “gel formation singly or on mixing” value [1] is reported as “did not form a gel singly”.
